Earlier results, collected in US12599654B2, “Immunogenic peptide fragments of metalloprotease ADAMTS-7 and uses thereof in anti-atherosclerosis and related diseases” (BEIJING KIMWAY BIOTECH CO. LTD, priority 2019, dated 2026).

Molecular target: T1, proprotein convertase subtilisin/kexin type 9 (PCSK9) (Homo sapiens, UniProt Q8NBP7)
T1 construct: host or cells: human trial subjects (endogenous circulating PCSK9)
Conditions: low-dose, phase I clinical trials; cited from earlier work

Substance: REGN727: monoclonal antibody against the proprotein convertase subtilisin/kexin type 9 (PCSK9)
- reduction of LDL level of subjects: more than 30%
